As a reminder, the stoichiometry N is a count of units in the complex or per binding partner.

The target of assay [1] is Taxol-stabilised microtubules (TIRF) (pig) (UniProt P02550). Briefly: TIRF microscopy of single particles on microtubules.
A further assay has as its target CENP-OPQU (human) (UniProt Q9BU64). Briefly: AUC.

Sequence of CENP-OPQU (human) (Q9BU64 whole entry, chain 1 of 4): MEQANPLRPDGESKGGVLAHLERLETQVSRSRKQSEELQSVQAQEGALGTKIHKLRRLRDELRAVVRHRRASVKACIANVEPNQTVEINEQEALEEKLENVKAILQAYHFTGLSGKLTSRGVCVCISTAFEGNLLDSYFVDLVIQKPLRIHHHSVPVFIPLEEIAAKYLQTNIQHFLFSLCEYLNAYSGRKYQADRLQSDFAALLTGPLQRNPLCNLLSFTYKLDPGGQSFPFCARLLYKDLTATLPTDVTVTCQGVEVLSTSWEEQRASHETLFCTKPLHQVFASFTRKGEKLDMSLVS
Sequence of CENP-OPQU (human) (Q6IPU0 whole entry, chain 2 of 4, further chain): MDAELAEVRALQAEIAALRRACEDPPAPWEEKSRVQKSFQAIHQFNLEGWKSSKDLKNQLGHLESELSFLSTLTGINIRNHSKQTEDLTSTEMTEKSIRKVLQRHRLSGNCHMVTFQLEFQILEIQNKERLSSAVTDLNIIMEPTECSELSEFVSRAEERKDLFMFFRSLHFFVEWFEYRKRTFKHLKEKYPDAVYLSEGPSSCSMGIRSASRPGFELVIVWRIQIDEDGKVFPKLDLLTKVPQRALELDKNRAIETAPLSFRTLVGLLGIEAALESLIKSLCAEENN
Sequence of CENP-OPQU (human) (Q7L2Z9 whole entry, chain 3 of 4, further chain): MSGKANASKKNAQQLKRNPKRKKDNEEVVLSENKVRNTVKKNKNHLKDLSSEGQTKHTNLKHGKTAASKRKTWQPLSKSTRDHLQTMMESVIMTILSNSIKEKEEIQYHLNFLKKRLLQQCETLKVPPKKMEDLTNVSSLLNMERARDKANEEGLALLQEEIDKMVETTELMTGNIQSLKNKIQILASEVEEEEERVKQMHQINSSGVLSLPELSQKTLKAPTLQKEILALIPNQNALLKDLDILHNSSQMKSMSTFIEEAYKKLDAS
Sequence of CENP-OPQU (human) (Q71F23 whole entry, chain 4 of 4, further chain): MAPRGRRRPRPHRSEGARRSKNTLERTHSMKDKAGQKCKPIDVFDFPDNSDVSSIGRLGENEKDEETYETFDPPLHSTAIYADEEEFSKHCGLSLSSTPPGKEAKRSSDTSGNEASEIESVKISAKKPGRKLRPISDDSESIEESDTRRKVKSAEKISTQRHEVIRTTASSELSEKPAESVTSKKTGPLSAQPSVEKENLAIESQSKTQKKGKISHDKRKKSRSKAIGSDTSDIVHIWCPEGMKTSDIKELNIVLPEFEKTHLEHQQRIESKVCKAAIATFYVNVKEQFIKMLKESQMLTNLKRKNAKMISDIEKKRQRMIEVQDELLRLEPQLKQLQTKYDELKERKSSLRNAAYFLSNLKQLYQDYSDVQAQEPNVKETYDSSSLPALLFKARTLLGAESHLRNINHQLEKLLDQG
Sequence of CENP-OPQU (Q9BU64 whole entry): as the sequence (Q9BU64 whole entry, chain 1 of 4) above
Sequence of CENP-OPQU (Q6IPU0 whole entry): as the sequence (Q6IPU0 whole entry, chain 2 of 4, further chain) above
Sequence of CENP-OPQU (Q7L2Z9 whole entry): as the sequence (Q7L2Z9 whole entry, chain 3 of 4, further chain) above
Sequence of CENP-OPQU (Q71F23 whole entry): as the sequence (Q71F23 whole entry, chain 4 of 4, further chain) above

Consider “CENP-OPQU (from UniProt Q9BU64 1-300; Q6IPU0 1-288; Q7L2Z9 1-268; Q71F23 1-418) (complex)”, for which the mean time associated in assay [1] turned out to be 131 s.

“CENP-R (co-expressed or co-lysed with CENP-OPQU subunits) (from UniProt Q13352 1-177) (natural protein)”: the stoichiometry N with CENP-OPQU (human) worked out at 1.

The values above are taken from article PMC6162344.
